# Reference: patent US20220402983A1 (Janssen / Centocor, published 2022)
# *1 amine or outer side, *2 acyl side, *3 side chain or, on linkers, in order; H or OH if unused. Bridges are numbered along the chain shown (N, C = ends). Where no end group is shown, it is not given here. [ ]: non-standard residue; d: D form. The star is where a group is joined. dPhe(3,4-diOMe) = D-Phe with 3,4-dimethoxy, COc1ccc(C[C@@H](N[*:1])C(=O)[*:2])cc1OC; αMe2Nal = alpha-methyl-2-Nal, C[C@@](Cc1ccc2ccccc2c1)(N[*:1])C(=O)[*:2]; Trp(7-Ph) = N[C@@H](Cc1c[nH]c2c(-c3ccccc3)cccc12)C(=O)O; Phe(3,4-(OMe)2) = COc1ccc(C[C@H](N)C(=O)O)cc1OC; Trp(5-F) = N[C@@H](Cc1c[nH]c2ccc(F)cc12)C(=O)O; Trp(7-Me) = Cc1cccc2c(C[C@H](N)C(=O)O)c[nH]c12; 2Nal = N[C@@H](Cc1ccc2ccccc2c1)C(=O)O; d(αMeF) = C[C@@](N)(Cc1ccccc1)C(=O)O; AEF = NCCOc1ccc(C[C@H](N)C(=O)O)cc1; αMeF = C[C@](N)(Cc1ccccc1)C(=O)O; αMeE = C[C@](N)(CCC(=O)O)C(=O)O; β3hF = N[C@H](CC(=O)O)Cc1ccccc1; Pen = CC(C)(S)[C@H](N)C(=O)O; αMeK = C[C@](N)(CCCCN)C(=O)O; αMeC = C[C@](N)(CS)C(=O)O; 3Quin = not defined here; Isobutyryl = CC(C)C(=O)*; dDap = NC[C@@H](N)C(=O)O; Thp = NC1(C(=O)O)CCOCC1; Abu = CC[C@H](N)C(=O)O; Aib = CC(C)(N)C(=O)O; Tfa = O=C(C(F)(F)F)*; Ahx = NCCCCCC(=O)O
# T1: human IL-23R (interleukin-23 receptor) (human, UniProt Q5VWK5 24-629)
# T1 sequence (looked up): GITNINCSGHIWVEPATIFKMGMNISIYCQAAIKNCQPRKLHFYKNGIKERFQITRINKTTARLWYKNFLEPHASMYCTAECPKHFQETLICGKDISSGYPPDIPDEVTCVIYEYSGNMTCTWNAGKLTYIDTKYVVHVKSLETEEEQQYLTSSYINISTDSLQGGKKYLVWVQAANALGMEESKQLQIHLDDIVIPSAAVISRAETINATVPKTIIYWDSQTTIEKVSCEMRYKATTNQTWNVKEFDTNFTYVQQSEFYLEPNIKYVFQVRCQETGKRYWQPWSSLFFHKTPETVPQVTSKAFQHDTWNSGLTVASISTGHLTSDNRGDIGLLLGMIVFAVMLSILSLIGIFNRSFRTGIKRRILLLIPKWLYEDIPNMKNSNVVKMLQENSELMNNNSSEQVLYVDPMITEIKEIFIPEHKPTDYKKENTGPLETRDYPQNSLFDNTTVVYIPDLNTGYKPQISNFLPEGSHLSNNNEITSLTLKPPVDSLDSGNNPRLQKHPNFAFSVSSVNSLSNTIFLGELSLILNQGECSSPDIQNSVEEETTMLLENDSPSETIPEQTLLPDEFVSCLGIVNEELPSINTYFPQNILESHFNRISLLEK
# Target: T1, human IL-23R (interleukin-23 receptor)
# Test: cell-based or functional assay
Binder,PBMC pSTAT3 IC50 (nM),"pStat3 HTRF (nM), IC50, DB cells IL23R pSTAT3 cell assay [nM]"
Ac-[dR][Pen]QTWQ[Pen][AEF][2Nal][Thp]K(Tfa)NF-NH2 (disulfide 2-7; SMILES CC(=O)N[C@H](CCCNC(=N)N)C(=O)N[C@@H]1C(=O)N[C@@H](CCC(N)=O)C(=O)N[C@@H]([C@@H](C)O)C(=O)N[C@@H](Cc2c[nH]c3ccccc23)C(=O)N[C@@H](CCC(N)=O)C(=O)N[C@H](C(=O)N[C@@H](Cc2ccc(OCCN)cc2)C(=O)N[C@@H](Cc2ccc3ccccc3c2)C(=O)NC2(C(=O)N[C@@H](CCCCNC(=O)C(F)(F)F)C(=O)N[C@@H](CC(N)=O)C(=O)N[C@@H](Cc3ccccc3)C(N)=O)CCOCC2)C(C)(C)SSC1(C)C) [Compound No. 60],44,
Ac-[dR][Pen]QTWQ[Pen][AEF][2Nal][Thp]K(Isobutyryl)NF-NH2 (disulfide 2-7; SMILES CC(=O)N[C@H](CCCNC(=N)N)C(=O)N[C@@H]1C(=O)N[C@@H](CCC(N)=O)C(=O)N[C@@H]([C@@H](C)O)C(=O)N[C@@H](Cc2c[nH]c3ccccc23)C(=O)N[C@@H](CCC(N)=O)C(=O)N[C@H](C(=O)N[C@@H](Cc2ccc(OCCN)cc2)C(=O)N[C@@H](Cc2ccc3ccccc3c2)C(=O)NC2(C(=O)N[C@@H](CCCCNC(=O)C(C)C)C(=O)N[C@@H](CC(N)=O)C(=O)N[C@@H](Cc3ccccc3)C(N)=O)CCOCC2)C(C)(C)SSC1(C)C) [Compound No. 61],70,
Ac-[Pen]NT[Trp(7-Ph)]K(Ac)[Pen][AEF][3Quin][Thp]EN[Aib]-NH2 (disulfide 1-6; reading uncertain) [Compound No. 62],,0.413
Ac-[Pen]NT[Trp(7-Ph)]K(Ac)[Pen][AEF][3Quin][αMeK]K(Ac)N[Aib]-NH2 (disulfide 1-6; reading uncertain) [Compound No. 63],,1.02
Ac-[Abu]QT[Trp(7-Ph)]K(Ac)C[AEF][2Nal][αMeK]K(Ac)N[αMeF]-NH2 (thioether 1-6) [Compound No. 67],,5.52
Ac-[Pen]NT[Trp(7-Me)]K(Ac)[Pen][AEF][2Nal][αMeK]K(Ac)N[dL][αMeF]-NH2 (disulfide 1-6; SMILES CC(=O)NCCCC[C@@H]1NC(=O)[C@H](Cc2c[nH]c3c(C)cccc23)NC(=O)[C@H]([C@@H](C)O)NC(=O)[C@H](CC(N)=O)NC(=O)[C@@H](NC(C)=O)C(C)(C)SSC(C)(C)[C@@H](C(=O)N[C@@H](Cc2ccc(OCCN)cc2)C(=O)N[C@@H](Cc2ccc3ccccc3c2)C(=O)N[C@@](C)(CCCCN)C(=O)N[C@@H](CCCCNC(C)=O)C(=O)N[C@@H](CC(N)=O)C(=O)N[C@H](CC(C)C)C(=O)N[C@@](C)(Cc2ccccc2)C(N)=O)NC1=O) [Compound No. 68],,7
Ac-[Pen]NT[Trp(7-Me)]K(Ac)[Pen][AEF][2Nal][αMeK]K(Ac)N[dL][d(αMeF)]-NH2 (disulfide 1-6; SMILES CC(=O)NCCCC[C@@H]1NC(=O)[C@H](Cc2c[nH]c3c(C)cccc23)NC(=O)[C@H]([C@@H](C)O)NC(=O)[C@H](CC(N)=O)NC(=O)[C@@H](NC(C)=O)C(C)(C)SSC(C)(C)[C@@H](C(=O)N[C@@H](Cc2ccc(OCCN)cc2)C(=O)N[C@@H](Cc2ccc3ccccc3c2)C(=O)N[C@@](C)(CCCCN)C(=O)N[C@@H](CCCCNC(C)=O)C(=O)N[C@@H](CC(N)=O)C(=O)N[C@H](CC(C)C)C(=O)N[C@](C)(Cc2ccccc2)C(N)=O)NC1=O) [Compound No. 69],,2.75
Ac-[Pen]NT[Trp(7-Me)]K(Ac)[Pen][AEF][2Nal][αMeK]K(Ac)N[Aib][Ahx]-NH2 (disulfide 1-6; SMILES CC(=O)NCCCC[C@@H]1NC(=O)[C@H](Cc2c[nH]c3c(C)cccc23)NC(=O)[C@H]([C@@H](C)O)NC(=O)[C@H](CC(N)=O)NC(=O)[C@@H](NC(C)=O)C(C)(C)SSC(C)(C)[C@@H](C(=O)N[C@@H](Cc2ccc(OCCN)cc2)C(=O)N[C@@H](Cc2ccc3ccccc3c2)C(=O)N[C@@](C)(CCCCN)C(=O)N[C@@H](CCCCNC(C)=O)C(=O)N[C@@H](CC(N)=O)C(=O)NC(C)(C)C(=O)NCCCCCC(N)=O)NC1=O) [Compound No. 70],,1.22
Ac-[Pen]NT[Trp(7-Me)]K(Ac)[Pen][AEF][2Nal][αMeK]K(Ac)N[Aib][β3hF]-NH2 (disulfide 1-6; SMILES CC(=O)NCCCC[C@@H]1NC(=O)[C@H](Cc2c[nH]c3c(C)cccc23)NC(=O)[C@H]([C@@H](C)O)NC(=O)[C@H](CC(N)=O)NC(=O)[C@@H](NC(C)=O)C(C)(C)SSC(C)(C)[C@@H](C(=O)N[C@@H](Cc2ccc(OCCN)cc2)C(=O)N[C@@H](Cc2ccc3ccccc3c2)C(=O)N[C@@](C)(CCCCN)C(=O)N[C@@H](CCCCNC(C)=O)C(=O)N[C@@H](CC(N)=O)C(=O)NC(C)(C)C(=O)N[C@H](CC(N)=O)Cc2ccccc2)NC1=O) [Compound No. 71],,3.39
Ac-[Pen]N[dDap][Trp(7-Me)]K(Ac)[Pen][AEF][2Nal][αMeK]K(Ac)N[dL]-NH2 (disulfide 1-6; SMILES CC(=O)NCCCC[C@@H]1NC(=O)[C@H](Cc2c[nH]c3c(C)cccc23)NC(=O)[C@@H](CN)NC(=O)[C@H](CC(N)=O)NC(=O)[C@@H](NC(C)=O)C(C)(C)SSC(C)(C)[C@@H](C(=O)N[C@@H](Cc2ccc(OCCN)cc2)C(=O)N[C@@H](Cc2ccc3ccccc3c2)C(=O)N[C@@](C)(CCCCN)C(=O)N[C@@H](CCCCNC(C)=O)C(=O)N[C@@H](CC(N)=O)C(=O)N[C@H](CC(C)C)C(N)=O)NC1=O) [Compound No. 72],,52.6
Ac-[Pen]N[dK][Trp(7-Me)]K(Ac)[Pen][AEF][2Nal][αMeK]K(Ac)N[dL]-NH2 (disulfide 1-6; SMILES CC(=O)NCCCC[C@@H]1NC(=O)[C@H](Cc2c[nH]c3c(C)cccc23)NC(=O)[C@@H](CCCCN)NC(=O)[C@H](CC(N)=O)NC(=O)[C@@H](NC(C)=O)C(C)(C)SSC(C)(C)[C@@H](C(=O)N[C@@H](Cc2ccc(OCCN)cc2)C(=O)N[C@@H](Cc2ccc3ccccc3c2)C(=O)N[C@@](C)(CCCCN)C(=O)N[C@@H](CCCCNC(C)=O)C(=O)N[C@@H](CC(N)=O)C(=O)N[C@H](CC(C)C)C(N)=O)NC1=O) [Compound No. 73],,51.1
Ac-[Pen]N[dD][Trp(7-Me)]K(Ac)[Pen][AEF][2Nal][αMeK]K(Ac)N[dL]-NH2 (disulfide 1-6; SMILES CC(=O)NCCCC[C@@H]1NC(=O)[C@H](Cc2c[nH]c3c(C)cccc23)NC(=O)[C@@H](CC(=O)O)NC(=O)[C@H](CC(N)=O)NC(=O)[C@@H](NC(C)=O)C(C)(C)SSC(C)(C)[C@@H](C(=O)N[C@@H](Cc2ccc(OCCN)cc2)C(=O)N[C@@H](Cc2ccc3ccccc3c2)C(=O)N[C@@](C)(CCCCN)C(=O)N[C@@H](CCCCNC(C)=O)C(=O)N[C@@H](CC(N)=O)C(=O)N[C@H](CC(C)C)C(N)=O)NC1=O) [Compound No. 74],,73.1
"Ac-[dR][Abu]QTWQC[AEF][2Nal][Thp][αMeE]N[Phe(3,4-(OMe)2)]-NH2 (thioether 2-7) [Compound No. 78]",31,
"Ac-[dR][Abu]QTWQC[AEF][2Nal][Thp][αMeE]N[dPhe(3,4-diOMe)]-NH2 (thioether 2-7) [Compound No. 79]",25,
Ac-[dR][Abu]QTWQC[AEF][2Nal][Thp]EN[αMe2Nal]-NH2 (thioether 2-7) [Compound No. 80],46,
Ac-[dR][Abu]QTWQC[AEF][2Nal][Thp][αMeE]N[Trp(5-F)]-NH2 (thioether 2-7) [Compound No. 81],30,
Ac-[Pen]QTWK(Ac)[Pen][AEF][2Nal][αMeK]K(Ac)N[αMeF]-NH2 (disulfide 1-6; SMILES CC(=O)NCCCC[C@@H]1NC(=O)[C@H](Cc2c[nH]c3ccccc23)NC(=O)[C@H]([C@@H](C)O)NC(=O)[C@H](CCC(N)=O)NC(=O)[C@@H](NC(C)=O)C(C)(C)SSC(C)(C)[C@@H](C(=O)N[C@@H](Cc2ccc(OCCN)cc2)C(=O)N[C@@H](Cc2ccc3ccccc3c2)C(=O)N[C@@](C)(CCCCN)C(=O)N[C@@H](CCCCNC(C)=O)C(=O)N[C@@H](CC(N)=O)C(=O)N[C@@](C)(Cc2ccccc2)C(N)=O)NC1=O) [Compound No. 82],54,
[dR][Abu]QTWQ[αMeC][AEF][2Nal][Thp]EN[αMeF]-NH2 (thioether 2-7; not fully specified (N-terminus); printed as pr-[(D)Arg]-[Abu]-Q-T-W-Q-[aMeCys]-Phe[4-(2-aminoethoxy)]-[2-Nal]-[THP]-E-N-[a-MePhe]-NH2) [Compound No. 83],33,
